Results from article PMC3706390.

What was measured:
[1] = target: T1, L30 (ribosomal protein L30) wild-type (rat, UniProt P62890 1-115); test: UV cross-linking; 30 mM Tris-HCl pH 8.0, 75 mM KCl, 5 mM MgCl2, 1 mM DTT, 0.04 ug/uL BSA, 10% glycerol, 50 ng/uL yeast tRNA, 30 C 15 min; EMSA gels 0.5X TBE at 4 C; RNase digesti
[2] = target: T1, L30 (ribosomal protein L30) wild-type; test: EMSA; 5 mM Mg2+; 30 mM Tris-HCl pH 8.0, 75 mM KCl, 5 mM MgCl2, 1 mM DTT, 0.04 ug/uL BSA, 10% glycerol, 50 ng/uL yeast tRNA, 30 C 15 min; EMSA gels 0.5X TBE at 4 C; RNase digesti

Row | Binder | binding result [1] | Kd [2]
1 | PHGPx SECIS wild-type (UV cross-linking) (structured_RNA) RNA: CUGCCCUGUGACCCCUGGAGCCUUCCACCCCGGCACUCAUGACGGUCUGCCUGAAAACCAGCCCGCUGGUGGGGCAGUCCCGAGGACCUGGCGUGCAUCCCCGCCGGAGGAAGGUCCAGACGCUGUGGCC | binds | 
2 | PHGPx SECIS U40C (structured_RNA) RNA: CUGCCCUGUGACCCCUGGAGCCUUCCACCCCGGCACUCACGACGGUCUGCCUGAAAACCAGCCCGCUGGUGGGGCAGUCCCGAGGACCUGGCGUGCAUCCCCGCCGGAGGAAGGUCCAGACGCUGUGGCC | no binding | 
3 | GGGACCGGAGUGUCGCAAGACGCAGAGAUGGUCC (structured_RNA) [L30 RNA (stem-loop of L30 pre-mRNA)] |  | 0.17 µM
